Molecular target: T1, GST-OsSGT1 (rice (Oryza sativa L.), UniProt Q0JL44 1-367)
T1 sequence (looked up): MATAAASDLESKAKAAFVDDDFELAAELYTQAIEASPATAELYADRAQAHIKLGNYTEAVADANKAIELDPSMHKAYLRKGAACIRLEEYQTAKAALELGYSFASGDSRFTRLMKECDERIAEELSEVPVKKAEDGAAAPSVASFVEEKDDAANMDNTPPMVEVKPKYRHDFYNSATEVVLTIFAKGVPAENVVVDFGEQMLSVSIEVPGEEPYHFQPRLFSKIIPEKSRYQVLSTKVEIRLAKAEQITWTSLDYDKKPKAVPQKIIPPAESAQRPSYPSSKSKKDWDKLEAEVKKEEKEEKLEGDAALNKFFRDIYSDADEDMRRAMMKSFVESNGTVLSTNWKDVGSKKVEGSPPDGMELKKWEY
Assay: pull-down; GST-, GST-fusion-coupled beads used to capture the His tag or His-OsSAPK9; detection with HRP-conjugated anti-His antibody
Settings: both partners purified

B1: His-OsSAPK9 (natural protein, rice (Oryza sativa L.), UniProt Q75V57 1-361, looked up)
chain: MERAAAGPLGMEMPIMHDGDRYELVKEIGSGNFGVARLMRNRASGDLVAVKYIDRGEKIDENVQREIINHRSLRHPNIIRFKEVILTPTHLAIVMEYASGGELFERICSAGRFSEDEARFFFQQLISGVSYCHSMQVCHRDLKLENTLLDGSTAPRLKICDFGYSKSSVLHSQPKSTVGTPAYIAPEVLLKKEYDGKIADVWSCGVTLYVMLVGAYPFEDPEDPKNFRKTIQKILGVQYSIPDYVHISPECRDLITRIFVGNPASRITMPEIKNHPWFMKNIPADLMDDGMVSNQYEEPDQPMQNMNEIMQILAEATIPAAGTSGINQFLTDSLDLDDDMEDMDSDLDLDIESSGEIVYAM
notes: also called histidine-tagged OsSAPK9 protein
  binding result: binds
